Results as given in patent US20190361034A1.

Assays:
[1] = target: MHC class II molecules on MHC class II-expressing Raji cells (human); experiment: transfer cell ELISA, Raji cells; 125 ng/ml; plate row D
[2] = target: MHC class II molecules on MHC class II-expressing Raji cells (human); experiment: transfer cell ELISA, Raji cells; 250 ng/ml; plate row C
[3] = target: MHC class II molecules on MHC class II-expressing Raji cells (human); experiment: transfer cell ELISA, Raji cells; 250 ng/ml; plate row D
[4] = target: MHC class II molecules on MHC class II-expressing Raji cells (human); experiment: transfer cell ELISA, Raji cells; 0.977 ng/ml; plate row C
[5] = target: MHC class II molecules on MHC class II-expressing Raji cells (human); experiment: transfer cell ELISA, Raji cells; 1.953 ng/ml; plate row C
[6] = target: MHC class II molecules on MHC class II-expressing Raji cells (human); experiment: transfer cell ELISA, Raji cells; 3.906 ng/ml; plate row D
[7] = target: MHC class II molecules on MHC class II-expressing Raji cells (human); experiment: transfer cell ELISA, Raji cells; 31.25 ng/ml; plate row C
[8] = target: MHC class II molecules on MHC class II-expressing Raji cells (human); experiment: transfer cell ELISA, Raji cells; 31.25 ng/ml; plate row D
[9] = target: MHC class II molecules on MHC class II-expressing Raji cells (human); experiment: transfer cell ELISA, Raji cells; 7.813 ng/ml; plate row C
[10] = target: MHC class II molecules on MHC class II-expressing Raji cells (human); experiment: direct ELISA, plate-immobilised Raji cells; 10% FBS, 2,500 cells; 250 ng/ml
[11] = target: MHC class II molecules on MHC class II-expressing Raji cells (human); experiment: direct ELISA, plate-immobilised Raji cells; 10% FBS, 2,500 cells; 500 ng/ml
[12] = target: MHC class II molecules on MHC class II-expressing Raji cells (human); experiment: direct ELISA, plate-immobilised Raji cells; 10% FBS, 5,000 cells; 250 ng/ml
[13] = target: MHC class II molecules on MHC class II-expressing Raji cells (human); experiment: direct ELISA, plate-immobilised Raji cells; 5% BSA, 2,500 cells; 62.5 ng/ml
[14] = target: MHC class II molecules on MHC class II-expressing Raji cells (human); experiment: direct ELISA, plate-immobilised Raji cells; 5% BSA, 5,000 cells; 62.5 ng/ml
[15] = target: MHC class II molecules on MHC class II-expressing Raji cells (human); experiment: direct ELISA, plate-immobilised Raji cells; 10% FBS, 10,000 cells; 125 ng/ml
[16] = target: MHC class II molecules on MHC class II-expressing Raji cells (human); experiment: direct ELISA, plate-immobilised Raji cells; 10% FBS, 10,000 cells; 500 ng/ml
[17] = target: MHC class II molecules on MHC class II-expressing Raji cells (human); experiment: direct ELISA, plate-immobilised Raji cells; 5% BSA, 10,000 cells; 31.25 ng/ml
[18] = target: MHC class II molecules on MHC class II-expressing Raji cells (human); experiment: direct ELISA, plate-immobilised Raji cells; 5% BSA, 2,500 cells; 15.625 ng/ml
[19] = target: MHC class II molecules on MHC class II-expressing Raji cells (human); experiment: direct ELISA, plate-immobilised Raji cells; 10% FBS, 10,000 cells; 31.25 ng/ml
[20] = target: MHC class II molecules on MHC class II-expressing Raji cells (human); experiment: direct ELISA, plate-immobilised Raji cells; 10% FBS, 5,000 cells; 15.625 ng/ml
[21] = target: MHC class II molecules on MHC class II-expressing Raji cells (human); experiment: direct ELISA, plate-immobilised Raji cells; 10% FBS, 10,000 cells; 15.625 ng/ml
[22] = target: MHC class II molecules on MHC class II-expressing Raji cells (human); experiment: transfer cell ELISA, Raji cells; 500 ng/ml
[23] = target: MHC class II molecules on MHC class II-expressing Raji cells (human); experiment: transfer cell ELISA, Raji cells; 3.906 ng/ml
[24] = target: MHC class II molecules on MHC class II-expressing Raji cells (human); experiment: BLI; immobilised sample, Raji cells in solution; dark control of FIG. 23
[25] = target: MHC class II molecules on MHC class II-expressing Raji cells (human); experiment: direct ELISA, plate-immobilised Raji cells; 0.5% Casein, 2,500 cells; 500 ng/ml
[26] = target: MHC class II molecules on MHC class II-expressing Raji cells (human); experiment: direct ELISA, plate-immobilised Raji cells; 0.5% Casein, 5,000 cells; 125 ng/ml
[27] = target: MHC class II molecules on MHC class II-expressing Raji cells (human); experiment: direct ELISA, plate-immobilised Raji cells; 3% gelatin, 10,000 cells; 125 ng/ml
[28] = target: MHC class II molecules on MHC class II-expressing Raji cells (human); experiment: direct ELISA, plate-immobilised Raji cells; 3% gelatin, 2,500 cells; 1000 ng/ml
[29] = target: MHC class II molecules on MHC class II-expressing Raji cells (human); experiment: direct ELISA, plate-immobilised Raji cells; 3% gelatin, 5,000 cells; 1000 ng/ml
[30] = target: MHC class II molecules on MHC class II-expressing Raji cells (human); experiment: direct ELISA, plate-immobilised Raji cells; 0.5% Casein, 10,000 cells; 125 ng/ml
[31] = target: MHC class II molecules on MHC class II-expressing Raji cells (human); experiment: direct ELISA, plate-immobilised Raji cells; 0.5% Casein, 10,000 cells; 31.25 ng/ml
[32] = target: MHC class II molecules on MHC class II-expressing Raji cells (human); experiment: BLI; immobilised sample, Raji cells in solution; control of FIG. 19 (37° C., 1 day, no H2O2)
[33] = target: MHC class II molecules on MHC class II-expressing Raji cells (human); experiment: BLI; IMP321 sample diluted from reference standard to 50% binding potency, Raji cells in solution; relative to reference standard

“IMP321 treated with Peptide-N-Glycosidase F (PNGase F) (Fc fusion)” was tested, and the OD (ELISA signal) [1] was 0.206 OD, the OD (ELISA signal) [2] was 0.276 OD and the OD (ELISA signal) [3] was 0.361 OD. For the same substance, the OD (ELISA signal) [4] was 0.01 OD, the OD (ELISA signal) [5] was 0.011 OD and the OD (ELISA signal) [6] was 0.012 OD. For the same substance, the OD (ELISA signal) [7] was 0.042 OD, the OD (ELISA signal) [8] was 0.049 OD and the OD (ELISA signal) [9] was 0.02 OD. For the same substance, the OD (ELISA signal) [10] was 1.29 OD, the OD (ELISA signal) [11] was 1.8 OD and the OD (ELISA signal) [12] was 0.939 OD. It also gave an OD (ELISA signal) [13] of 0.297 OD, an OD (ELISA signal) [14] of 0.303 OD and an OD (ELISA signal) [15] of 0.377 OD. It also gave an OD (ELISA signal) [16] of 1.35 OD, an OD (ELISA signal) [17] of 0.31 OD and an OD (ELISA signal) [18] of 0.281 OD. For the same substance, the OD (ELISA signal) [19] was 0.279 OD, the OD (ELISA signal) [20] was 0.327 OD and the OD (ELISA signal) [21] was 0.333 OD.

In the case of “IMP321, recombinant soluble human LAG-3Ig fusion protein (Fc fusion)”, the OD (ELISA signal) [22] is reported as 1.81 OD, the OD (ELISA signal) [23] is reported as 0.034 OD and the Bioactivity (binding) [24] is reported as 100%. For the same substance, the OD (ELISA signal) [25] was 0.18 OD, the OD (ELISA signal) [26] was 0.197 OD and the OD (ELISA signal) [27] was 0.688 OD. It also gave an OD (ELISA signal) [28] of 2.6 OD, an OD (ELISA signal) [29] of 2.31 OD and an OD (ELISA signal) [30] of 0.176 OD. It also gave an OD (ELISA signal) [31] of 0.18 OD, a Bioactivity (binding) [32] of 85% and a Potency determined by BLI assay [33] of 55%.
